Reference: patent US20220324928, “Zinc Finger Protein Transcription Factors for Repressing Alpha-Synuclein Expression” (Sangamo Therapeutics, Inc., published 2022)

Tests used:
Assay in all cases: cell_activity; SNCA mRNA repression at highest dose
Settings in all cases: tags: NLS, C-terminal KOX1 KRAB
ZFP-TF SBS-82150 = ZFP-TF SBS-82150 (Artificial Sequence)
ZFP-TF SBS-82215 = ZFP-TF SBS-82215 (Artificial Sequence)
ZFP-TF SBS-82092 = ZFP-TF SBS-82092 (Artificial Sequence)
ZFP-TF SBS-82190 = ZFP-TF SBS-82190 (Artificial Sequence)
Chain of ZFP-TF SBS-82190 (Artificial Sequence) (chain, as listed by the source): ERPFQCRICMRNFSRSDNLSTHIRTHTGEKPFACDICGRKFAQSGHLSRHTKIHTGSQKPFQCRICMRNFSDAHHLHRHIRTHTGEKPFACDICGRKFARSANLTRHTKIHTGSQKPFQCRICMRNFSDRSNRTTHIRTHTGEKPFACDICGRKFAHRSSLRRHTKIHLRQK

ZFP-TF SBS-82090 = ZFP-TF SBS-82090 (Artificial Sequence)
Chain of ZFP-TF SBS-82090 (Artificial Sequence) (chain, as listed by the source): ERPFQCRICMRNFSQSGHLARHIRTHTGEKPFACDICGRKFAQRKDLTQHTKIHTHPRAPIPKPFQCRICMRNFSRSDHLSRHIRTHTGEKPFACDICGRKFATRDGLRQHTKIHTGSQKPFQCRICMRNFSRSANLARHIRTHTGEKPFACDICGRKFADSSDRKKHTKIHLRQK

ZFP-TF SBS-82197 = ZFP-TF SBS-82197 (Artificial Sequence)
Chain of ZFP-TF SBS-82197 (Artificial Sequence) (chain, as listed by the source): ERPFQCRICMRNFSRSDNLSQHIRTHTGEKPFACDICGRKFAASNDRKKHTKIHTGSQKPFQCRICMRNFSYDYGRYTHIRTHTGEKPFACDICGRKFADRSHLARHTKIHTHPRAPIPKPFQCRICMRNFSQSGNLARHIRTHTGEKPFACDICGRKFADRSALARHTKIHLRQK

ZFP-TF SBS-82107 = ZFP-TF SBS-82107 (Artificial Sequence)
Chain of ZFP-TF SBS-82107 (Artificial Sequence) (chain, as listed by the source): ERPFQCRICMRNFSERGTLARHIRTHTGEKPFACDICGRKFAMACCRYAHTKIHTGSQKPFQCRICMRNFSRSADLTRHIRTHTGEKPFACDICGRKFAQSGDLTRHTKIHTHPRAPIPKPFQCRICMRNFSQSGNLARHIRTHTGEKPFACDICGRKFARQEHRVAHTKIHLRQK

ZFP-TF SBS-82294 = ZFP-TF SBS-82294 (Artificial Sequence)
Chain of ZFP-TF SBS-82294 (Artificial Sequence) (chain, as listed by the source): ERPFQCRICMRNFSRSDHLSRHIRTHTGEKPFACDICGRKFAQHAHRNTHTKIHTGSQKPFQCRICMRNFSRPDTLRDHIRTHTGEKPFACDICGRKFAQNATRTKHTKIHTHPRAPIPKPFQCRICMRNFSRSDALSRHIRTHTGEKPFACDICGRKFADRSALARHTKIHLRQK

ZFP-TF SBS-82225 = ZFP-TF SBS-82225 (Artificial Sequence)
Chain of ZFP-TF SBS-82225 (Artificial Sequence) (chain, as listed by the source): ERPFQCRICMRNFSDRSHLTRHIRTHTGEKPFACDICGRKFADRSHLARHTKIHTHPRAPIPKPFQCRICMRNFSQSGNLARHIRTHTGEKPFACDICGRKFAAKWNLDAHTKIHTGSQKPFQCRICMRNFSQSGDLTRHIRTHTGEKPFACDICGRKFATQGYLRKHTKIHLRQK

Chain of ZFP-TF SBS-82215 (Artificial Sequence) (chain, as listed by the source): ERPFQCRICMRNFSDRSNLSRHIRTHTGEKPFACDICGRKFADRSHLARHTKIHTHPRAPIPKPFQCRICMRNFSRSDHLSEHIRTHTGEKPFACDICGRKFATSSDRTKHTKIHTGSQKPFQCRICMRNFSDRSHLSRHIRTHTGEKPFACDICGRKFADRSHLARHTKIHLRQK
Chain of ZFP-TF SBS-82092 (Artificial Sequence) (chain, as listed by the source): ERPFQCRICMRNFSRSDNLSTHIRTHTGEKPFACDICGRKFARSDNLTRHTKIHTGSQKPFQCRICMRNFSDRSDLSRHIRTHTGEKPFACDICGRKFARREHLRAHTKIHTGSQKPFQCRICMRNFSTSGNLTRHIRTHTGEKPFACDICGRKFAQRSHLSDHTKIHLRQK
Chain of ZFP-TF SBS-82150 (Artificial Sequence) (chain, as listed by the source): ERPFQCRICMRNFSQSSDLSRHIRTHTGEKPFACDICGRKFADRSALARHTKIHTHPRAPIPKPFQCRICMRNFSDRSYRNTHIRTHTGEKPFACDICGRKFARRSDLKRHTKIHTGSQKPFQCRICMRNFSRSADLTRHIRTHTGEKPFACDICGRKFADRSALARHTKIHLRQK

B1: SNCA site 82150 (dsDNA)
DNA 1: CGTCGCGGCGCTCGGTCGCTC
DNA 2: GAGCGACCGAGCGCCGCGACG
ZFP-TF SBS-82150
  activity: ≥ 95 % repression

B2: SNCA site 82215 (dsDNA)
DNA 1: AGGCGGCACCCGGGGGGGACT
DNA 2: AGTCCCCCCCGGGTGCCGCCT
ZFP-TF SBS-82215
  activity: ≥ 95 % repression

B3: SNCA site 82092 (dsDNA)
DNA 1: CCGAGATAGGGACGAGGAGC
DNA 2: GCTCCTCGTCCCTATCTCGG
ZFP-TF SBS-82092
  activity: ≥ 95 % repression

B4: SNCA site 82190 (dsDNA)
DNA 1: CGCTCACGAGGGTGGAAAGG
DNA 2: CCTTTCCACCCTCGTGAGCG
ZFP-TF SBS-82190
  activity: ≥ 95 % repression

B5: SNCA site 82090 (dsDNA)
DNA 1: ATCCGAGATAGGGACGAGGAG
DNA 2: CTCCTCGTCCCTATCTCGGAT
ZFP-TF SBS-82090
  activity: ≥ 95 % repression

B6: SNCA site 82197 (dsDNA)
DNA 1: CGTCGAATGGCCACTCCCAGT
DNA 2: ACTGGGAGTGGCCATTCGACG
ZFP-TF SBS-82197
  activity: ≥ 95 % repression

B7: SNCA site 82107 (dsDNA)
DNA 1: CAGGGAAAGCAGCGAGCGCCG
DNA 2: CGGCGCTCGCTGCTTTCCCTG
ZFP-TF SBS-82107
  activity: ≥ 95 % repression

B8: SNCA site 82294 (dsDNA)
DNA 1: GGTCGTGGGCACCGGGAGGGG
DNA 2: CCCCTCCCGGTGCCCACGACC
ZFP-TF SBS-82294
  activity: ≥ 95 % repression

B9: SNCA site 82225 (dsDNA)
DNA 1: GAGCGCACAGGAAGGGCGGAG
DNA 2: CTCCGCCCTTCCTGTGCGCTC
ZFP-TF SBS-82225
  activity: ≥ 95 % repression
